Earlier results in article PMC5493423.
pKd: −log10 of the molar value.

System: CD31 (protein used for the reported Kd)
Details: biotin; PBMCs at 1e7 cells/ml, 100 ul, aptamer 30 min at 4 C, then flow cytometry staining buffer; column in APTSCI binding buffer (composition not given)

Substance: CD31 aptamer, biotinylated (APTSCI CD31-2196BCI)
- pKd: 8.94
